We go through one molecule from article PMC8437803, “Structural basis of RNA processing by human mitochondrial RNase P” (Nature Structural & Molecular Biology, 2021).

The test has as its target T1, Δ1–45 PRORP (human, UniProt O15091 46-583).
T1 construct: PRORP (MRPP3), human, without the predicted mitochondrial targeting signal (residues 1-45); also called MRPP3; Δ45-PRORP; source: E. coli BL21 (DE3) RIL, purified (HisTrap, TEV cleavage, heparin, Superdex 200); not shown: His6, N-terminal, cleaved
T1 sequence (looked up): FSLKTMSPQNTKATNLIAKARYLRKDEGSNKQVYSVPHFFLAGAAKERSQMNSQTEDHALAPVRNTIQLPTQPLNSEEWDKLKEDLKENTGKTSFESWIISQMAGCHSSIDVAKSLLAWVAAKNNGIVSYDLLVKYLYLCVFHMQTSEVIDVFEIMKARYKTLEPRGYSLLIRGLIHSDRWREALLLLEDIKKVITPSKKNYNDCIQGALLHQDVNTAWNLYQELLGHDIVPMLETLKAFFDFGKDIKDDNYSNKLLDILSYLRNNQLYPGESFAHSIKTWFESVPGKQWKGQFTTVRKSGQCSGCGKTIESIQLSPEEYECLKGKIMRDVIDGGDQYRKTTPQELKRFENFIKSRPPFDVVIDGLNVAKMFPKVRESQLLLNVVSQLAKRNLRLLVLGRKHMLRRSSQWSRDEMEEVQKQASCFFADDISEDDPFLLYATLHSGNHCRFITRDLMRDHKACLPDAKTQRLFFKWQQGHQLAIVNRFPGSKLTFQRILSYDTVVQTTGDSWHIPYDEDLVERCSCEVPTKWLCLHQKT
The test is described as follows: cryo-EM structure; Δ1–39 TRMT10C–SDR5C1 complex mixed with pre-tRNA^Tyr and NADH, then PRORP added, 30 °C, 100 mM Tris-HCl pH 8.0, 100 mM NaCl, 250 μM EDTA (Mg2+-depleted), 2 mM DTT; complex purified on Superdex 200 Increase 3.2/300; single-particle cryo-EM, 3.0 Å. Conditions: both partners purified.

B1: Δ1–39 TRMT10C (enzyme, human, UniProt Q7L0Y3 40-403, looked up)
chain: MSSKIPAVTYPKNESTPPSEELELDKWKTTMKSSVQEECVSTISSSKDEDPLAATREFIEMWRLLGREVPEHITEEELKTLMECVSNTAKKKYLKYLYTKEKVKKARQIKKEMKAAAREEAKNIKLLETTEEDKQKNFLFLRLWDRNMDIAMGWKGAQAMQFGQPLVFDMAYENYMKRKELQNTVSQLLESEGWNRRNVDPFHIYFCNLKIDGALHRELVKRYQEKWDKLLLTSTEKSHVDLFPKDSIIYLTADSPNVMTTFRHDKVYVIGSFVDKSMQPGTSLAKAKRLNLATECLPLDKYLQWEIGNKNLTLDQMIRILLCLKNNGNWQEALQFVPKRKHTGFLEISQHSQEFINRLKKAKT
notes: TRMT10C (MRPP1), human, without the predicted mitochondrial targeting signal (residues 1-39); 6x His tag and TEV site on TRMT10C only; tag cleaved by TEV protease during purification; also called MRPP1; Δ39 TRMT10C; source: E. coli BL21 (DE3) RIL, coexpressed with SDR5C1, copurified (HisTrap, TEV cleavage, heparin, Superdex 200); not shown: His6, N-terminal, cleaved
On to B1, for which the binding result is listed as “binds”.
